B1: MKIAA0820 protein (Fragment) (other, mouse, UniProt Q8BZ98 1-863, looked up)
chain: MGNREMEELIPLVNRLQDAFSALGQSCLLELPQIAVVGGQSAGKSSVLENFVGRDFLPRGSGIVTRRPLVLQLVTSKAEYAEFLHCKGKKFTDFDEVRHEIEAETDRVTGMNKGISSIPINLRVYSPHVLNLTLIDLPGITKVPVGDQPPDIEYQIRDMIMQFITRENCLILAVTPANTDLANSDALKLAKEVDPQGLRTIGVITKLDLMDEGTDARDVLENKLLPLRRGYVGVVNRSQKDIDGKKDIKAAMLAERKFFLSHPAYRHIADRMGTPHLQKVLNQQLTNHIRDTLPNFRNKLQGQLLSIEHEVEAFKNFKPEDPTRKTKALLQMVQQFAVDFEKRIEGSGDQVDTLELSGGAKINRIFHERFPFEIVKMEFNEKELRREISYAIKNIHGIRTGLFTPDMAFEAIVKKQIVKLKGPSLKSVDLVMQELINTVKKCTKRLANFPRLCEETERIVANHIREREGKTKDQVLLLIDIQVSYINTNHEDFIGFANAQQRSSQVHKKSTIGNQVIRKGWLTVSNIGIMKGGSKGYWFVLTAESLSWYKDDEEKEKKYMLPLDNLKVRDVEKGFMSSKHVFALFNTEQRNVYKDYRFLELACDSQEDVDSWKASLLRAGVYPDKSVGSNKTENDENGQAENFSMDPQLERQVETIRNLVDSYMSIINKCIRDLIPKTIMHLMINNVKDFINSELLAQLYSSEDQNTLMEESAEQAQRRDEMLRMYQALKEALAIIGDINTATVSTPAPPPVDDSWLQHSRRSPPPSPTTQRRLTISAPLPRPTSGRGPAPAIPSPGPHSGAPPVPFRPGPLPPFPNSSDSFGAPPQVPSRPTRAPPSVPSRRPPPSPTRPTIIRPLESSLLD
notes: also called Q80TR2_MOUSE
B2: 14-3-3 protein eta (other, mouse, UniProt P68510 2-246, looked up)
chain: GDREQLLQRARLAEQAERYDDMASAMKAVTELNEPLSNEDRNLLSVAYKNVVGARRSSWRVISSIEQKTMADGNEKKLEKVKAYREKIEKELETVCNDVLALLDKFLIKNCNDFQYESKVFYLKMKGDYYRYLAEVASGEKKNSVVEASEAAYKEAFEISKEHMQPTHPIRLGLALNFSVFYYEIQNAPEQACLLAKQAFDDAIAELDTLNEDSYKDSTLIMQLLRDNLTLWTSDQQDEEAGEGN
notes: also called 14-3-3 η
B3: 14-3-3 protein theta (14-3-3 protein tau) (other, mouse, UniProt P68254 1-245, looked up)
chain: MEKTELIQKAKLAEQAERYDDMATCMKAVTEQGAELSNEERNLLSVAYKNVVGGRRSAWRVISSIEQKTDTSDKKLQLIKDYREKVESELRSICTTVLELLDKYLIANATNPESKVFYLKMKGDYFRYLAEVACGDDRKQTIENSQGAYQEAFDISKKEMQPTHPIRLGLALNFSVFYYEILNNPELACTLAKTAFDEAIAELDTLNEDSYKDSTLIMQLLRDNLTLWTSDSAGEECDAAEGAEN
notes: also called 14-3-3 θ
B4: Superoxide dismutase [Cu-Zn] (enzyme)
chain: not shown
B5: Peroxiredoxin-5, mitochondrial precursor (Prx-V) (enzyme, mouse, UniProt P99029 49-210, looked up)
chain: MAPIKVGDAIPSVEVFEGEPGKKVNLAELFKGKKGVLFGVPGAFTPGCSKTHLPGFVEQAGALKAKGAQVVACLSVNDVFVIEEWGRAHQAEGKVRLLADPTGAFGKATDLLLDDSLVSLFGNRRLKRFSMVIDNGIVKALNVEPDGTGLTCSLAPNILSQL
notes: also called PRDX5_MOUSE
B6: Elongation factor 1-alpha 2 (EF-1-alpha-2) (Elongation factor 1 A-2) (eEF1A-2) (Statin S1) (other, mouse, UniProt P62631 2-463, looked up)
chain: GKEKTHINIVVIGHVDSGKSTTTGHLIYKCGGIDKRTIEKFEKEAAEMGKGSFKYAWVLDKLKAERERGITIDISLWKFETTKYYITIIDAPGHRDFIKNMITGTSQADCAVLIVAAGVGEFEAGISKNGQTREHALLAYTLGVKQLIVGVNKMDSTEPAYSEKRYDEIVKEVSAYIKKIGYNPATVPFVPISGWHGDNMLEPSPNMPWFKGWKVERKEGNASGVSLLEALDTILPPTRPTDKPLRLPLQDVYKIGGIGTVPVGRVETGILRPGMVVTFAPVNITTEVKSVEMHHEALSEALPGDNVGFNVKNVSVKDIRRGNVCGDSKADPPQEAAQFTSQVIILNHPGQISAGYSPVIDCHTAHIACKFAELKEKIDRRSGKKLEDNPKSLKSGDAAIVEMVPGKPMCVESFSQYPPLGRFAVRDMRQTVAVGVIKNVEKKSGGAGKVTKSAQKAQKAGK
notes: also called EF1A2_MOUSE
B7: Myosin light chain kinase 2, skeletal/cardiac muscle (MLCK2) (Fragment) (enzyme, mouse, UniProt Q8VCR8 1-613, looked up)
chain: MTTENGAVELGSQSLSTEQTPKAAAGDGPSASEKEPSAPATEKDLSPPNAKKDPGAPDPKNNPDPPSLKKDPAKAPGPEKKGDPVPASASSQGPSGEGDGGGGPAEGSEGPPAALPLPTATAEASIQKLDPTQAPSGNQGSGEAKAGKKAAECREAGRRGSPAFLHSPSCPAIISCSEKTLAVKPLSETTDLVFTGVSVTPDPQDPGPVKAGGTNALAEKKKEEAEKASGQAGQAKVQGDTPQRIGFQAVPSERVEVGQALCLTAREEDCFQILDDCPPPPAPFPHRIVELRTGNVNSEFSMNSKEALGGGKFGAVCTCTERATGLKLAAKVIKKQTPKDKEMVLLEIEVMNQLNHRNLIQLYAAIETSHEIILFMEYIEGGELFERIVDEDYHLTEVDTMVFVRQICDGILFMHKMRVLHLDLKPENILCVNTTGHLVKIIDFGLARRYNPNEKLKVNFGTPEFLSPEVVNYDQISDKTDMWSLGVITYMLLSGLSPFLGDDDTETLNNVLSANWYFDEETFEAVSDEAKDFVSNLLTKDQSARMSAEQCLAHPWLNNLAEKAKRCNRRLKSQILLKKYLMKRRWKKNFIAVSAANRFKKISSSGALMALGV
notes: also called MYLK2_MOUSE
B8: 14-3-3 protein beta/alpha (Protein kinase C inhibitor protein 1) (KCIP-1) (other, mouse, UniProt Q9CQV8 1-246, looked up)
chain: MTMDKSELVQKAKLAEQAERYDDMAAAMKAVTEQGHELSNEERNLLSVAYKNVVGARRSSWRVISSIEQKTERNEKKQQMGKEYREKIEAELQDICNDVLELLDKYLILNATQAESKVFYLKMKGDYFRYLSEVASGENKQTTVSNSQQAYQEAFEISKKEMQPTHPIRLGLALNFSVFYYEILNSPEKACSLAKTAFDEAIAELDTLNEESYKDSTLIMQLLRDNLTLWTSENQGDEGDAGEGEN
notes: also called 14-3-3 β
B9: ATP synthase e chain, mitochondrial (enzyme, mouse, UniProt Q06185 2-71, looked up)
chain: VPPVQVSPLIKFGRYSALIIGMAYGAKRYSYLKPRAEEERRIAAEEKKRLDELKRIERELAEAQDDSILK
notes: also called epsilon chain
B10: Sodium/potassium-transporting ATPase alpha-2 chain precursor (Sodium pump 2) (Na+/K+ ATPase 2) (Alpha(+)) (enzyme)
chain: not shown
notes: also called AT1A2_MOUSE
B11: 2',3'-cyclic-nucleotide 3'-phosphodiesterase (CNPase) (enzyme, mouse, UniProt P16330 1-417, looked up)
chain: MNTSFTRKSHTFLPKLFFRKMSSSGAKEKPELQFPFLQDEDTVATLHECKTLFILRGLPGSGKSTLARLILEKYHDGTKMVSADAYKIIPGSRADFSEAYKRLDEDLAGYCRRDIRVLVLDDTNHERERLDQLFEMADQYQYQVVLVEPKTAWRLDCAQLKEKNQWQLSADDLKKLKPGLEKDFLPLYFGWFLTKKSSETLRKAGQVFLEELGNHKAFKKELRHFISGDEPKEKLELVSYFGKRPPGVLHCTTKFCDYGKAAGAEEYAQQEVVKRSYGKAFKLSISALFVTPKTAGAQVVLTDQELQLWPSDLDKPSASEGLPPGSRAHVTLGCAADVQPVQTGLDLLDILQQVKGGSQGEAVGELPRGKLYSLGKGRWMLSLTKKMEVKAIFTGYYGKGKPVPIHGSRKGGAMQIC
notes: also called CN37_MOUSE
B12: Neuronal membrane glycoprotein M6-b (M6b) (other, mouse, UniProt P35803 1-328, looked up)
chain: MKPAMETAAEENTEQSQERKVNSRAEMEIGRYHWMYPGSKNHQYRPVPNLGDRAGPLSSPGCFECCIKCLGGVPYASLVATILCFSGVALFCGCGHVALAGTVAILEQHFSTNTSDHALLSEVIQLMQYVIYGIASFFFLYGIILLAEGFYTTSAVKELHGEFKTTACGRCISGMFVFLTYVLGVAWLGVFGFSAVPVFMFYNIWSTCEVIKSPQSNGTSGVEQICVDVRQYGIIPWNAFPGKICGSALENICNTNEFYMSYHLFIVACAGAGATVIALIHFLMILSSNWAYLKDASKMQAYQDIKAKEEQELQDIQSRSKEQLNSYT
notes: also called Proteolipid protein PLP/dm-20
B13: phosphoglycerate mutase 1 (enzyme, mouse, UniProt Q9DBJ1 1-254, looked up)
chain: MAAYKLVLIRHGESAWNLENRFSGWYDADLSPAGHEEAKRGGQALRDAGYEFDICFTSVQKRAIRTLWTVLDAIDQMWLPVVRTWRLNERHYGGLTGLNKAETAAKHGEAQVKIWRRSYDVPPPPMEPDHPFYSNISKDRRYADLTEDQLPSCESLKDTIARALPFWNEEIVPQIKEGKRVLIAAHGNSLRGIVKHLEGLSEEAIMELNLPTGIPIVYELDKNLKPIKPMQFLGDEETVRKAMEAVAAQGKVKK
notes: also called PGAM1_MOUSE
B14: Plasma membrane calcium-transporting ATPase 2 (PMCA2) (enzyme, mouse, UniProt Q9R0K7 1-1198, looked up)
chain: MGDMTNSDFYSKNQRNESSHGGEFGCTMEELRSLMELRGTEAVVKIKETYGDTEAICRRLKTSPVEGLPGTAPDLEKRKQIFGQNFIPPKKPKTFLQLVWEALQDVTLIILEIAAIISLGLSFYHPPGESNEGCATAQGGAEDEGEAEAGWIEGAAILLSVICVVLVTAFNDWSKEKQFRGLQSRIEQEQKFTVVRAGQVVQIPVAEIVVGDIAQIKYGDLLPADGLFIQGNDLKIDESSLTGESDQVRKSVDKDPMLLSGTHVMEGSGRMVVTAVGVNSQTGIIFTLLGAGGEEEEKKDKKAKQQDGAAAMEMQPLKSAEGGDADDKKKANMHKKEKSVLQGKLTKLAVQIGKAGLVMSAITVIILVLYFTVDTFVVNKKPWLTECTPVYVQYFVKFFIIGVTVLVVAVPEGLPLAVTISLAYSVKKMMKDNNLVRHLDACETMGNATAICSDKTGTLTTNRMTVVQAYVGDVHYKEIPDPSSINAKTLELLVNAIAINSAYTTKILPPEKEGALPRQVGNKTECGLLGFVLDLRQDYEPVRSQMPEEKLYKVYTFNSVRKSMSTVIKMPDESFRMYSKGASEIVLKKCCKILSGAGEARVFRPRDRDEMVKKVIEPMACDGLRTICVAYRDFPSSPEPDWDNENDILNELTCICVVGIEDPVRPEVPEAIRKCQRAGITVRMVTGDNINTARAIAIKCGIIHPGEDFLCLEGKEFNRRIRNEKGEIEQERIDKIWPKLRVLARSSPTDKHTLVKGIIDSTHTEQRQVVAVTGDGTNDGPALKKADVGFAMGIAGTDVAKEASDIILTDDNFSSIVKAVMWGRNVYDSISKFLQFQLTVNVVAVIVAFTGACITQDSPLKAVQMLWVNLIMDTFASLALATEPPTETLLLRKPYGRNKPLISRTMMKNILGHAVYQLTLIFTLLFVGEKMFQIDSGRNAPLHSPPSEHYTIIFNTFVMMQLFNEINARKIHGERNVFDGIFRNPIFCTIVLGTFAIQIVIVQFGGKPFSCSPLQLDQWMWCIFIGLGELVWGQVIATIPTSRLKFLKEAGRLTQKEEIPEEELNEDVEEIDHAERELRRGQILWFRGLNRIQTQIRVVKAFRSSLYEGLEKPESRTSIHNFMAHPEFRIEDSQPHIPLIDDTDLEEDAALKQNSSPPSSLNKNNSAIDSGINLTTDTSKSATSSSPGSPIHSLETSL
notes: also called AT2B2_MOUSE

target: APP-TAP-AICD (human, UniProt P05067 18-695); test: streptavidin purification of APP-TAP-AICD from brain homogenate; LTQ-FT semiquantitative method, transgenic mouse 75 vs control mouse 72

Row | Binder | probability that this protein is enriched
1 | B1 | 1
2 | B2 | 1
3 | B3 | 1
4 | B4 | 1
5 | B5 | 1
6 | B6 | 1
7 | B7 | 1
8 | B8 | 1
9 | B9 | 0.88
10 | B10 | 0.88
11 | B11 | 0.87
12 | B12 | 0.87
13 | B13 | 0.86
14 | B14 | 0.86
